The values below come from patent publication US12686846B2, “Plant sweet and yeast MSF transporter capable of transporting different sugars simultaneously” (THE BOARD OF TRUSTEES OF THE UNIVERSITY OF ILLINOIS, priority 2020, dated 2026).

Data set [1] relates to transporter-overexpressing SR8D8. Nature of the data set: Inhibition of xylose uptake by glucose. Format: cell-based, S. cerevisiae. Particulars: 25 mM or 100 mM glucose. On the procedure:
SR8D8 containing the respective plasmid was grown on selective YPE medium to an OD600 of 1-1.5, harvested by centrifugation, and washed twice in ice-cold uptake buffer (100 mM potassium phosphate, pH 6.5). C14 labeled sugar uptake assay was done according to Boles and Oreb. Radioactivity was analyzed in a Beckman-Coulter LS6500 multi-purpose liquid scintillation counter (Beckman-Coulter, CA, USA).
Sugar solutions contained 0.135-0.608 μCi of D-[U-^14C]-glucose (290-300 mCi/mmol) or D-[1-^14C]-xylose (55 mCi/mmol) (PerkinElmer, MA, USA). Calculation of Km (Michaelis constant), Vmax (maximal initial uptake velocity), and K (inhibitor constant for competitive inhibition) was done by nonlinear regression analysis and global curve fitting in Prism 7 (GraphPad Software) with values of three independent measurements.

Data set [2] has as its system SR8D8 expressing transporter. Kind of data set: Sole glucose or xylose flask fermentation. Format: cell-based, S. cerevisiae. Particulars: glucose or xylose conditions, YP medium. On the procedure:
(§1) For flask fermentation, a single colony was inoculated to 5 or 25 mL YPE ([…], 1% w/v yeast extract, 2% peptone, 5% ethanol) supplemented with 200 μg/ml of geneticin to obtain seed cultures. […] Flask fermentations were maintained at 30° C. and 250 rpm.
(§2) A xylose fermenting S. cerevisiae yeast (SR8) with HXT1-7Δ, GAL2Δ deletions was used for transporter screening and characterization (SR8D8). SR8D8 was grown in YPE medium/plate (10 g/L yeast extract, 20 g/L peptone, and 5 g/L ethanol). […] SRD8 strains transformed with plasmid containing KanMX marker conferring resistance to G418 (geneticin) were propagated on YPE supplemented with 200 μg/ml of geneticin. For growth and flask fermentation experiments all media was supplemented with 200 μg/ml of geneticin for plasmid maintenance. Biomass was calculated from the OD600 measured using a Biomate 5 UV-visible spectrophotometer (Fisher, NY, USA). All growth rates were measured using a Bioscreen C plate reader system (Growth Curves USA, Piscataway, NJ, USA). A 2 μL inoculum of fully grown culture was added into 200 μL YP (+200 μg/ml Geneticin) with varying concentrations of different sugars. A wide band filter (420-580 nm) was used to measure optical density. Bioscreen C values represent mean value from three biological replicates. In all cases, the Bioscreen C was set to maintain a temperature of 30° C. and high aeration through high continuous shaking.

Data set [3] relates to SR8D8 expressing transporter. Nature of the data set: Transporter screening for growth on glucose or xylose (Bioscreen C). Format: cell-based, S. cerevisiae. Particulars: glucose or xylose containing medium, OD600. How it is done: ScGal2 expressing SR8D8 were used as a positive control (FIG. 3). Most of the AtSWEETs and putative oleaginous transporters expressing strains were not able to grow on glucose or xylose.
as §2

Data set [4] has as its system SR8D8 expressing transporter. Nature of the data set: Glucose and xylose mixed sugar flask fermentation (20 g/L each). Format: cell-based, S. cerevisiae. Particulars: 20 g/L of glucose and xylose, YP medium. On the procedure: as §1, §2
Data set [5] relates to SR8D8 expressing transporter. Nature of the data set: Mixed sugar fermentation at industrially relevant sugar concentrations. The class given is cell-based, S. cerevisiae. Particulars: 7% glucose and 4% xylose (70 g/L, 40 g/L). How it is done:
as §1

Substrate in data set [6]: OC[C@H]1OC(O)[C@H](O)[C@@H](O)[C@@H]1O
Nature of the data set: cells, lysate or membranes. Particulars: other: initial glucose uptake (5 s), 30° C., pH 6.5, 0.2 to 100 mM glucose, ± SEM in Table 1.

Where “and” joins values, the source holds several entries; their conditions need not be identical. Identical values can stand only once. Entries after “also recorded” stand apart in the source; their conditions may differ.

B1: LST1_205437: Lipomyces starkeyi LST1 transporter polypeptide, SEQ ID NO:4, GenBank ODQ75362.1 (protein)
chain: MGFLGFLNRSQASEPVEKESTATTPSEGRTPQRPLSPAVGVPLEQDFETQLSAKDAPLLAFILGGVASVGGFMFGYQTGQISGFLEMSDFKTRFAACNSQTGQCTFSAARQGTIVGLFSIGTLIGSLIAAPIADRIGRRLTISFWAFFFMIGTVLEISSSHVWVQFAMGRFVGGLGIGALSVVVPMYQSESTPRMIRGVIVSSYQLMVTLGIWLAYMINWGTESLQGSQSWRITNGMSFLWALVLGIAILGLPESPRYAYRVGREEEARKNMARLYKLSPNHPIINLEIQEIQEKLDAERVGGDHPWYEIFTGPRMLYRTILGMVLQAGQQLTGANYFFYYGTTVFSATGLSNSYVTQIILGSVNVGGTIAGLWLIENCGRRKALMGGAAWMFMCFMVFAFVGHFSLDHQNPEATPQAGAALVVFSCLFIIAFAMTWGPIVWAIVGELYPARYRATCMGLATSSNWLFNFLIGFFTTFITGDIDYLYGLVFAGCCFALFFIVYFFVIETKGRSLEEIDTMYVLHVNPINSAKWDSSQLMRDGDGLVNTDDLYLEAGGNRFAKDEHSAHEMIPSHDENAPGPSHTSHADIEKAESSGAESRDAL
modifications: Lipomyces starkeyi LST1_204537 transporter polypeptide
With B1, the “inhibition of xylose transport by glucose (in words)” value in data set [1] is “partial inhibition of xylose uptake by glucose”. Further, the “sole sugar fermentation performance” value in data set [2] was “enabled glucose and xylose fermentation, depleting all provided sugars”. Besides, the “growth / transport capacity on glucose or xylose” value in data set [3] is “substantial growth on xylose and glucose; also recorded: capable of sustaining an efficient growth on glucose or xylose”. In addition, the “glucose and xylose mixed sugar fermentation phenotype” value in data set [4] was “co-consumption of glucose and xylose; also recorded: partial co-fermentation; also recorded: simultaneously utilize glucose and xylose”. In data set [5], the “mixed sugar utilization profile at high sugar” value was “partial xylose and glucose co-consumption”.

B2: Arabidopsis thaliana AtSWEET7 transporter, wild type (Table 2: SEQ ID NO: 3; FIG. 12: SEQ ID NO:2) (Arabidopsis thaliana) (protein)
chain: MVFAHLNLLRKIVGIIGNFIALCLFLSPTPTFVRIVKKKSVEEYSPIPYLATLINCLVWVLYGLPTVHPDSTLVITINGTGILIEIVFLTIFFVYCGRQKQRLIISAVIAAETAFIAILAVLVLTLQHTTEKRTMSVGIVCCVFNVMMYASPLSVMKMVIKTKSVEFMPFWLSVAGFLNAGVWTIYALMPFDPFMAIPNGIGCLFGLAQLILYGAYYKSTKRIMAERENQPGYVGLSSAIARTGSEKTANTNQEPNNV
In the case of B2, in data set [6], the Michaelis-Menten constant (Km) – broadly, the concentration of substrate that gives half-maximal velocity – is 75 mM and 74.1 ± 13.0 mM. Besides, the “inhibition of xylose transport by glucose (in words)” value in data set [1] was “do not have any xylose transport inhibition in the presence of both 25 mM and 100 mM glucose”. Moreover, the “sole sugar fermentation performance” value in data set [2] was “enabled glucose and xylose fermentation, depleting all provided sugars”. The “growth / transport capacity on glucose or xylose” value was “substantial growth on xylose and glucose; also recorded: both glucose and xylose transport capacity” in data set [3]; “capable of sustaining an efficient growth on glucose or xylose” in data set [3] (listed as SWEET7). Moreover, the “glucose and xylose mixed sugar fermentation phenotype” value was “simultaneous co-consumption of glucose and xylose with almost the same rates of sugar consumption; also recorded: true co-fermentation phenotype” in data set [4]; “simultaneously utilize glucose and xylose” in data set [4] (listed as SWEET7). The “mixed sugar utilization profile at high sugar” value in data set [5] is “co-consumption of glucose and xylose even at higher glucose concentrations”.
